Laboratory results taken from PMC4498904, “Mutagenesis Study Reveals the Rim of Catalytic Entry Site of HDAC4 and -5 as the Major Binding Surface of SMRT Corepressor” (PLoS ONE, 2015).

B1: KGC-HDAC4c (C-terminal portion of Kusabira Green protein fused with HDAC4c), wild type [human] / KGN-SRD3c (N-terminal portion of Kusabira Green protein fused with SRD3c) [human] (parent complex)
chain 1: PRFTTGLVYDTLMLKHQCTCGSSSSHPEHAGRIQSIWSRLQETGLRGKCECIRGRKATLEELQTVHSEAHTLLYGTNPLNRQKLDSKKLLGSLASVFVRLPCGGVGVDSDTIWNEVHSAGAARLAVGCVVELVFKVATGELKNGFAVVRPPGHHAEESTPMGFCYFNSVAVAAKLLQQRLSVSKILIVDWDVHHGNGTQQAFYSDPSVLYMSLHRYDDGNFFPGSGAPDEVGTGPGVGFNVNMAFTGGLDPPMGDAEYLAAFRTVVMPIASEFAPDVVLVSSGFDAVEGHPTPLGGYNLSARCFGYLTKQLMGLAGGRIVLALEGGHDLTAICDASEACVSALLGNELDPLPEKVLQQRPNANAVRSMEKVMEIHSKYWRCLQRTTSTAGRSLIEAQTCENEEAET
chain 2: EGGMSVTQCSKEDGRSSSGPPHETAAPKRTYDMMEGRVGRAISSASIEGLMGRAIPPERHSPHHLKEQHHIRGSITQGIPRSYVEAQEDYLRREAKLLKREGTPPPPPPSRDLTEAYKTQALGPLKLKPAHEGLVATVKEAGRSIHEIPREELRHTPELPLAPRPLKEGSITQGTPLKYDTGASTTGSKKHDVRSLIGSPGRTFPPVHPLDVMADARALERACY

Variants of: B1
Experiment: BiFC assay (fluorescence spectrophotometer); HEK293 cells; KGN-SRD3c (1 μg) and KGC-HDAC4c mutant (1 μg); 48 hours of transfection; whole cell lysates; parent: 8; read off a plot
A response of roughly 6.8 RFU was found for chain 1 PRFTTGLVYDTLMLKHQCTCGSSSSHPEHAGRIQSIWSRLQETGLRGKCECIRGRKATLEELQTVHSEAHTLLYGTNPLNRQKLDSKKLLGSLASVFVRLPCGGVGVDSDTIWNEVHSAGAARLAVGCVVELVFKVATGELKNGFAVVRPPGHHAEESTPMGFCYFNSVAVAAKLLQQRLSVSKILIVDWDVHHGNRTQQAFYSDPSVLYMSLHRYDDGNFFPGSGAPDEVGTGPGVGFNVNMAFTGGLDPPMGDAEYLAAFRTVVMPIASEFAPDVVLVSSGFDAVEGHPTPLGGYNLSARCFGYLTKQLMGLAGGRIVLALEGGHDLTAICDASEACVSALLGNELDPLPEKVLQQRPNANAVRSMEKVMEIHSKYWRCLQRTTSTAGRSLIEAQTCENEEAET [chain 1 G197R] in this work. A response of roughly 4.1 RFU was found for chain 1 PRFTTGLVYDTLMLKHQCTCGSSSSHPEHAGRIQSIWSRLQETGLRGKCECIRGRKATLEELQTVHSEAHTLLYGTNPLNRQKLDSKKLLGSLASVFVRLPCGGVGVDSDTIWNEVHSAGAARLAVGCVVELVFKVATGELKNGFAVVRPPGHHAEESTPMGFYYFNSVAVAAKLLQQRLSVSKILIVDWDVHHGNGTQQAFYSDPSVLYMSLHRYDDGNFFPGSGAPDEVGTGPGVGFNVNMAFTGGLDPPMGDAEYLAAFRTVVMPIASEFAPDVVLVSSGFDAVEGHPTPLGGYNLSARCFGYLTKQLMGLAGGRIVLALEGGHDLTAICDASEACVSALLGNELDPLPEKVLQQRPNANAVRSMEKVMEIHSKYWRCLQRTTSTAGRSLIEAQTCENEEAET [chain 1 C164Y] in this work. A response of roughly 4.2 RFU was found for chain 1 PRFTTGLVYDTLMLKHQCTCGSSSSHPEHAGRIQSIWSRLQETGLRGKCECIRGRKATLEELQTVHSEAHTLLYGTNPLNRQKLDSKKLLGSLASVFVRLPCGGVGVDSDTIWNEVHSAGAARLAVGCVVELVFKVATGELKNGFAVVRPPGHHAEESTPMGFCYFNSVAVAAKLLQQRLSVSKILIVDWDVHHGSGTQQAFYSDPSVLYMSLHRYDDGNFFPGSGAPDEVGTGPGVGFNVNMAFTGGLDPPMGDAEYLAAFRTVVMPIASEFAPDVVLVSSGFDAVEGHPTPLGGYNLSARCFGYLTKQLMGLAGGRIVLALEGGHDLTAICDASEACVSALLGNELDPLPEKVLQQRPNANAVRSMEKVMEIHSKYWRCLQRTTSTAGRSLIEAQTCENEEAET [chain 1 N196S] in this work. A response of roughly 4.2 RFU was found for chain 1 PRFTTGLVYDTLMLKHQCTCGSSSSHPEHAGRIQSIWSRLQETGLRGKCECIRGRKATLEELQTVHSEAHTLLYGTNPLNRQKLDSKKLLGSLASVFVRLPCGGVGVDSDTIWNEVHSAGAARLAVGCVVELVFKVATGELKNGFAVVRHPGHHAEESTPMGFCYFNSVAVAAKLLQQRLSVSKILIVDWDVHHGNGTQQAFYSDPSVLYMSLHRYDDGNFFPGSGAPDEVGTGPGVGFNVNMAFTGGLDPPMGDAEYLAAFRTVVMPIASEFAPDVVLVSSGFDAVEGHPTPLGGYNLSARCFGYLTKQLMGLAGGRIVLALEGGHDLTAICDASEACVSALLGNELDPLPEKVLQQRPNANAVRSMEKVMEIHSKYWRCLQRTTSTAGRSLIEAQTCENEEAET [chain 1 P150H] in this work. A response of roughly 4.6 RFU was found for chain 1 PRFTTGLVYDTLMLKHQCTCGSSSSHPEHAGRIQSIWSRLQETGLRGKCECIRGRKATLEELQTVHSEAHTLLYGTNPLNRQKLDSKKLLGSLASVFVRLPCGGVGVDSDTIWNEVHSAGAARLAVGCVVELVFKVATGELKNGFAVVRPPGHHAEESTPMGFCYFNSVAVAAKLLQQRLSVSKILIVDWDVHHRNGTQQAFYSDPSVLYMSLHRYDDGNFFPGSGAPDEVGTGPGVGFNVNMAFTGGLDPPMGDAEYLAAFRTVVMPIASEFAPDVVLVSSGFDAVEGHPTPLGGYNLSARCFGYLTKQLMGLAGGRIVLALEGGHDLTAICDASEACVSALLGNELDPLPEKVLQQRPNANAVRSMEKVMEIHSKYWRCLQRTTSTAGRSLIEAQTCENEEAET [chain 1 G195R] in this work. A response of roughly 4.1 RFU was found for chain 1 PRFTTGLVYDTLMLKHQCTCGSSSSHPEHAGRIQSIWSRLQETGLRGKCECIRGRKATLEELQTVHSEAHTLLYGTNPLNRQKLDSKKLLGSLASVFVRLPCGGVGVDSDTIWNEVHSAGAARLAVGCVVELVFKVATGELKNGFAVVRPHGHHAEESTPMGFCYFNSVAVAAKLLQQRLSVSKILIVDWDVHHGNGTQQAFYSDPSVLYMSLHRYDDGNFFPGSGAPDEVGTGPGVGFNVNMAFTGGLDPPMGDAEYLAAFRTVVMPIASEFAPDVVLVSSGFDAVEGHPTPLGGYNLSARCFGYLTKQLMGLAGGRIVLALEGGHDLTAICDASEACVSALLGNELDPLPEKVLQQRPNANAVRSMEKVMEIHSKYWRCLQRTTSTAGRSLIEAQTCENEEAET [chain 1 P151H] in this work. A response of roughly 3.9 RFU was found for chain 1 PRFTTGLVYDTLMLKHQCTCGSSSSHPEHAGRIQSIWSRLQETGLRGKCECIRGRKATLEELQTVHSEAHTLLYGTNPLNRQKLDSKKLLGSLASVFVRLPCGGVGVDSDTIWNEVHSAGAARLAVGCVVELVFKVATGELKNGFAVVRPPEHHAEESTPMGFCYFNSVAVAAKLLQQRLSVSKILIVDWDVHHGNGTQQAFYSDPSVLYMSLHRYDDGNFFPGSGAPDEVGTGPGVGFNVNMAFTGGLDPPMGDAEYLAAFRTVVMPIASEFAPDVVLVSSGFDAVEGHPTPLGGYNLSARCFGYLTKQLMGLAGGRIVLALEGGHDLTAICDASEACVSALLGNELDPLPEKVLQQRPNANAVRSMEKVMEIHSKYWRCLQRTTSTAGRSLIEAQTCENEEAET [chain 1 G152E] in this work.
